Assay results published in patent US20150259419A1 (PROTHENA BIOSCIENCES, published 2015).

T1: recombinant hMCAM-His (human, UniProt P43121 24-559)
T1 construct: not shown: His tag
T1 chain: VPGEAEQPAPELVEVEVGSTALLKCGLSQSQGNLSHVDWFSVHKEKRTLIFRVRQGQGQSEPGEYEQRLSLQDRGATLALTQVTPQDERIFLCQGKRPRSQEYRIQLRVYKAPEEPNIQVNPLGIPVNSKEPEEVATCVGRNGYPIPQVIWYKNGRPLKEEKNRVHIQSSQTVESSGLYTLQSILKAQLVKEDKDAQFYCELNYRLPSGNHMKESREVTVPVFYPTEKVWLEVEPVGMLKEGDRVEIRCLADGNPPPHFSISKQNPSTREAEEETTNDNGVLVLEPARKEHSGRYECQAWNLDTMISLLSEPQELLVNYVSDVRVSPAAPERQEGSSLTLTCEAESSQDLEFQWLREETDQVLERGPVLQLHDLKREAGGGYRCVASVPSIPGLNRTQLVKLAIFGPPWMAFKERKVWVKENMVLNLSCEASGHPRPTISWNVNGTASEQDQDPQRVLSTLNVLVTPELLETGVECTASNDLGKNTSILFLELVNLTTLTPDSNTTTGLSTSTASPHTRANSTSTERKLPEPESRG

T2: human MCAM, full length, expressed on transfected cells (human, UniProt P43121 24-646)
T2 construct: CHO cells transfected with the full length human MCAM gene; also called hMCAM; CD146
T2 chain: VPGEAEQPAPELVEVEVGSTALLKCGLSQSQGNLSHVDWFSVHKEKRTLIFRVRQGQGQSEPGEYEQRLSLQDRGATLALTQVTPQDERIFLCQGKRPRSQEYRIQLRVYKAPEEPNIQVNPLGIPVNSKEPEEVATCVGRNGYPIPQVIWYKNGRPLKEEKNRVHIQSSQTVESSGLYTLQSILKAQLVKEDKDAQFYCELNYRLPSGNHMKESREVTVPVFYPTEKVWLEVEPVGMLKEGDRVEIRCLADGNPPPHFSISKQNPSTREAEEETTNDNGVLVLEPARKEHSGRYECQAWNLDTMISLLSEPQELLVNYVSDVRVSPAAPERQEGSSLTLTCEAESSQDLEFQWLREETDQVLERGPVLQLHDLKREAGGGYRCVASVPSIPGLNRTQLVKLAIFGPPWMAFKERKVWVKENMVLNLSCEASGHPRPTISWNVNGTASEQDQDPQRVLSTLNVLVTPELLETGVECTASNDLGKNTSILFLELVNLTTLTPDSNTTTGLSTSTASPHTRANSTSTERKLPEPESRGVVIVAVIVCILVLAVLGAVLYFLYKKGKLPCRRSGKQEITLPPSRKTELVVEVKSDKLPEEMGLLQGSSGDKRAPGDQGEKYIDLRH

T3: human MCAM domain 1 (MCAMhFc domain construct) (human, UniProt P43121 19-129)
T3 construct: also called amino acids 19-129; not shown: human Fc portion (captured on anti-human IgG Fc biosensors)
T3 sequence: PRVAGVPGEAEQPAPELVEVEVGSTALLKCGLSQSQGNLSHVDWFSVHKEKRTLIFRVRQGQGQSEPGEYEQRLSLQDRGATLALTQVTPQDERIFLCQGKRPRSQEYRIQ

B1: h2120_VH1 + h2120_VL3 (antibody, V domains shown)
VH: QVTLKESGPVLVKPTETLTLTCTVSGFSLTSNGVSWVRQPPGKALEWIAAISSGGTTYYNSAFKSRLTISRDTSKSQVVLTMTNMDPVDTATYYCARRYGYGWYFDFWGQGTLVTVSS
VL: DIQMTQSPSSLSASVGDRVTINCKASQNIYNSLAWYQQKPGKAPKVLIFNANSLQTGIPSRFSGSGSGTDFTLTISSLQPEDFATYYCQQFYSGYTFGQGTKLEIK
notes: Humanized V regions cloned into expression vectors containing human CK (VL) or human IgG1 (VH); expressed in 293F cells; also called Standard VH + conservative VL; VH1VL3
B2: rat anti-human MCAM monoclonal antibody clone 2120.4.19 (antibody, V domains shown)
VH: QVQLKESGPGLVQPSQTLSLTCTVSGFSLTSNGVSWVRQPPGKGLEWIAAISSGGTTYYNSAFKSRLSISRNTSKSQVLLKMNSLQTEDTAMYFCARRYGYGWYFDFWGPGTMVTVSS
VL: DIRMTQSPSLLSASVGDRVTLNCKASQNIYNSLAWYQQKLGEGPKVLIPNANSLQTGIPSRFSGSGSGTDFTLTISSLQPEDFATYFCQQFYSGYTFGAGTKLELK
notes: also called m2120
B3: h2120_VH5 + h2120_VL3 (antibody, V domains shown)
VH: QVTLKESGPVLVKPTETLTLTCTVSGFSLTSNAVSWVRQPPGKALEWIAAISSGGTTYYNSAFKSRLTISRDTSKSQVVLTMTNMDPVDTATYYCARRYGYGWYFDFWGQGTLVTVSS
VL: DIQMTQSPSSLSASVGDRVTINCKASQNIYNSLAWYQQKPGKAPKVLIFNANSLQTGIPSRFSGSGSGTDFTLTISSLQPEDFATYYCQQFYSGYTFGQGTKLEIK
notes: also called h2120VH5VL3; VH5VL3
B4: h2120_VH2 + h2120_VL3 (antibody, human IgG1, V domains shown)
VH: QVTLKESGPVLVKPTETLTLTCTVSGFSLTSNGVSWVRQPPGKALEWIAAISSGGTTYYNSAFKSRLSISRDTSKSQVVLTMTNMDPVDTATYYCARRYGYGWYFDFWGQGTLVTVSS
VL: DIQMTQSPSSLSASVGDRVTINCKASQNIYNSLAWYQQKPGKAPKVLIFNANSLQTGIPSRFSGSGSGTDFTLTISSLQPEDFATYYCQQFYSGYTFGQGTKLEIK
notes: also called Conservative VH + conservative VL
B5: h2120_VH1 + h2120_VL1 (antibody, human IgG1, V domains shown)
VH: QVTLKESGPVLVKPTETLTLTCTVSGFSLTSNGVSWVRQPPGKALEWIAAISSGGTTYYNSAFKSRLTISRDTSKSQVVLTMTNMDPVDTATYYCARRYGYGWYFDFWGQGTLVTVSS
VL: DIQMTQSPSSLSASVGDRVTITCKASQNIYNSLAWYQQKPGKAPKVLIFNANSLQTGIPSRFSGSGSGTDFTLTISSLQPEDFATYYCQQFYSGYTFGQGTKLEIK
notes: also called Standard VH + standard VL
B6: h2120_VH1 + h2120_VL2 (antibody, human IgG1, V domains shown)
VH: QVTLKESGPVLVKPTETLTLTCTVSGFSLTSNGVSWVRQPPGKALEWIAAISSGGTTYYNSAFKSRLTISRDTSKSQVVLTMTNMDPVDTATYYCARRYGYGWYFDFWGQGTLVTVSS
VL: DIQMTQSPSSLSASVGDRVTITCKASQNIYNSLAWYQQKPGKAPKVLIFNANSLQTGVPSRFSGSGSGTDFTLTISSLQPEDFATYYCQQFYSGYTFGQGTKLEIK
notes: also called Standard VH + aggressive VL
B7: h2120_VH3 + h2120_VL3 (antibody, human IgG1, V domains shown)
VH: QVTLKESGPVLVKPTETLTLTCTVSGFSLTSSGVSWVRQPPGKALEWIAAISSGGTTYYNSAFKSRLTISRDTSKSQVVLTMTNMDPVDTATYYCARRYGYGWYFDFWGQGTLVTVSS
VL: DIQMTQSPSSLSASVGDRVTINCKASQNIYNSLAWYQQKPGKAPKVLIFNANSLQTGIPSRFSGSGSGTDFTLTISSLQPEDFATYYCQQFYSGYTFGQGTKLEIK
notes: also called N-S deamidate VH + conservative VL
B8: h2120_VH4 + h2120_VL3 (antibody, human IgG1, V domains shown)
VH: QVTLKESGPVLVKPTETLTLTCTVSGFSLTSQGVSWVRQPPGKALEWIAAISSGGTTYYNSAFKSRLTISRDTSKSQVVLTMTNMDPVDTATYYCARRYGYGWYFDFWGQGTLVTVSS
VL: DIQMTQSPSSLSASVGDRVTINCKASQNIYNSLAWYQQKPGKAPKVLIFNANSLQTGIPSRFSGSGSGTDFTLTISSLQPEDFATYYCQQFYSGYTFGQGTKLEIK
notes: also called N-Q deamidate VH + conservative VL

Key:
recombinant hMCAM-His [1] = target: T1, recombinant hMCAM-His; assay: competitive ELISA on hMCAM-His against biotinylated rodent or chimeric 2120; relative to rodent 2120
Description: ELISA plates were coated with recombinant hMCAM-His, and blocked with casein buffer to prevent non-specific binding. Biotinylated rodent or chimeric antibody was added at a subsaturating concentration, in the presence or absence of 3× increasing concentrations of unlabeled competitor (humanized antibody, rodent, or chimeric). After washing to remove unbound antibody, streptavidin HRP was added to allow detection of the biotinylated antibody. The ELISA was developed with TMB substrate and the OD450 was measured. The IC50 of the unlabeled competitor was determined using the GraphPad Prism5 software.

recombinant hMCAM-His [2] = target: T1, recombinant hMCAM-His; assay: ForteBio Octet Red, antibody on anti-human Fc sensors, hMCAMHis analyte, 1:1 fit; relative to rodent 2120
Description: The affinities were measured using the ForteBio Octet Red. Anti-human Fc sensors were used to capture the humanized antibodies, and several concentrations of hMCAMHis analyte were used to determine the affinity using a 1:1 fitting model.

[3] = target: T2, human MCAM, full length, expressed on …; assay: laminin/FACS assay: blocking of laminin 411 binding to hMCAM expressing CHO cells; relative to rodent 2120
Description: Following incubation for 30-45 minutes, the cells were washed and anti-laminin conjugated to AF650 (NovusBio) was added to detect the bound laminin. The cells were run on a flow cytometer to measure the laminin binding signal.

[4] = target: T3, human MCAM domain 1 (MCAMhFc domain …); assay: ForteBio Octet Red, MCAMhFc domains on anti-human IgG Fc biosensors
From the text: The following protocol was used: ForteBio anti-human IgG Fc biosensors were used to immobilize various MCAMhFc domains including full length MCAMhFc protein on to biosensor surface. […] After loading these samples into a black 96 well plate, the Octet Red was programmed as follows: 60 seconds for baseline #1; 180 seconds for loading various domains; 60 seconds for baseline #2; 180 seconds for association of antibody to domain; and 240 seconds for dissociation of antibody from domain.
1. MCAMhFc final concentration@5 ug/ml [0374] […] 3. ForteBio anti-human IgG Fc Capture (AHC) biosensors for kinetics experiments, cat #18-5060 [0376] 4. Block 96 well plate from Greiner Bio-one, cat #655209 [0377] 5. ForteBio Octet Red machine [0378] 6. Fresh tissue culture medium, DMEM with 20% FCS, was used as buffer for dilution

Binder	Fold over rodent (competitive ELISA IC50) (recombinant hMCAM-His [1])	Fold over rodent (competitive ELISA IC50, Expt. #1) (recombinant hMCAM-His [1])	Fold over rodent (competitive ELISA IC50, Expt. #2) (recombinant hMCAM-His [1])	Fold over rodent (Forte affinity) (recombinant hMCAM-His [2])	Fold over rodent (Forte affinity, Expt. #1) (recombinant hMCAM-His [2])	Fold over rodent (Forte affinity, Expt. #2) (recombinant hMCAM-His [2])	Fold over rodent (Forte affinity, second column) (recombinant hMCAM-His [2])	Fold over rodent (Blocking, Expt#1) [3]	Fold over rodent (Blocking, Expt#2) [3]	binding result [4]
B1	1.8 fold	2.23 fold	2.42 fold	5.9 fold	5.64 fold	6.21 fold	5.8 fold	1.7 fold	2.8 fold	–
B2	–	–	–	–	–	–	–	–	–	no binding (tested: 5 ug/ml)
B3	2.4 fold	–	–	1.1 fold	–	–	1.2 fold	1.2 fold	1.5 fold	–
B4	–	1.93 fold	2.62 fold	–	6.57 fold	6.43 fold	–	–	–	–
B5	3.1 fold	–	–	8.8 fold	–	–	–	2 fold	3.5 fold	–
B6	3.1 fold	–	–	10.8 fold	–	–	–	4.6 fold	12.6 fold	–
B7	–	3.47 fold	–	–	16.1 fold	–	–	–	–	–
B8	5 fold	–	–	17.4 fold	–	–	–	3.8 fold	5.6 fold	–
